T1: SasA (unlabeled) (Synechococcus elongatus, UniProt Q06904 1-387)
T1 sequence: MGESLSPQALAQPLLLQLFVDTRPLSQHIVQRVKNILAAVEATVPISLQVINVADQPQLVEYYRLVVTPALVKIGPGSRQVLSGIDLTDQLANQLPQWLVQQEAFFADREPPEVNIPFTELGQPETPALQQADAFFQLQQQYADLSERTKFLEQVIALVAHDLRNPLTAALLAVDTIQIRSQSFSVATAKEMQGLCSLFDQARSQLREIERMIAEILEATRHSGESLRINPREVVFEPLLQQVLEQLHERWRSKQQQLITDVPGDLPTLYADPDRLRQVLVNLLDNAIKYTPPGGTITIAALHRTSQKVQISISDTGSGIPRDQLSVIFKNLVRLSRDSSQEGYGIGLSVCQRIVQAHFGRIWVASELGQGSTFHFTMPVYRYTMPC

T2: KaiC (Synechococcus elongatus, UniProt Q79PF4 1-519)
T2 sequence: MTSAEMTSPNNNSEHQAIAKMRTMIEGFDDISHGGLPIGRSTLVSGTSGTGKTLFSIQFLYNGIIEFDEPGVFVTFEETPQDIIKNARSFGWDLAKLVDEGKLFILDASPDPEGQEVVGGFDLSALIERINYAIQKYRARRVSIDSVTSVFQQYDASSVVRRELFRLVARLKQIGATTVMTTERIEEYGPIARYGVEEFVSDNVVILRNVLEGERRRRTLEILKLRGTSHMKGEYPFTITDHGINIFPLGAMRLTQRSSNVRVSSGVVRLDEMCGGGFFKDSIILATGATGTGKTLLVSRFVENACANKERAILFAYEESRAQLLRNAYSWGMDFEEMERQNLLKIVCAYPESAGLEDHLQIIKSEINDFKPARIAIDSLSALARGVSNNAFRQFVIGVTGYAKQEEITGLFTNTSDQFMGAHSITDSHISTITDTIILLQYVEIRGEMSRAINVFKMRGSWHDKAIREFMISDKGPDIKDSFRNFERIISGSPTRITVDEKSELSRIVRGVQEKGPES


Columns and labels:
SasA (unlabeled) = target: T1, SasA (unlabeled); assay: fluorescence polarisation
KaiC = target: T2, KaiC; assay: fluorescence polarisation

Binder | binding result (SasA (unlabeled)) | binding result (KaiC)
RpaA R121Q mutant (natural protein) MKPRILVIDDDSAILELVAVNLEMSGYDVRKAEDGIKGQALAVQLVPDLIMLDLMLPRVDGFTVCQRLRRDERTAEIPVLMLTALGQTQDKVEGFNAGADDYLTKPFEVEEMLARVRALLQRTDRIPHAARHSEILSYGPLTLIPERFEAIWFNRTVKLTHLEFELLHCLLQRHGQTVAPSEILKEVWGYDPDDDIETIRVHIRHLRTKLEPDPRHPRYIKTVYGAGYCLELPAETELHQHADQFPSAS | binds | –
SasA, fluorescently labeled probe (enzyme, fluorescently labeled using sortase-mediated ligation) MGESLSPQALAQPLLLQLFVDTRPLSQHIVQRVKNILAAVEATVPISLQVINVADQPQLVEYYRLVVTPALVKIGPGSRQVLSGIDLTDQLANQLPQWLVQQEAFFADREPPEVNIPFTELGQPETPALQQADAFFQLQQQYADLSERTKFLEQVIALVAHDLRNPLTAALLAVDTIQIRSQSFSVATAKEMQGLCSLFDQARSQLREIERMIAEILEATRHSGESLRINPREVVFEPLLQQVLEQLHERWRSKQQQLITDVPGDLPTLYADPDRLRQVLVNLLDNAIKYTPPGGTITIAALHRTSQKVQISISDTGSGIPRDQLSVIFKNLVRLSRDSSQEGYGIGLSVCQRIVQAHFGRIWVASELGQGSTFHFTMPVYRYTMPC | – | binds

Other lines, results leading:

binding result (SasA (unlabeled)) | binding result (KaiC) | Binder
binds | – | RpaA, fluorescently labeled probe (natural protein, fluorescently labeled using sortase-mediated ligation) MKPRILVIDDDSAILELVAVNLEMSGYDVRKAEDGIKGQALAVQLVPDLIMLDLMLPRVDGFTVCQRLRRDERTAEIPVLMLTALGQTQDKVEGFNAGADDYLTKPFEVEEMLARVRALLRRTDRIPHAARHSEILSYGPLTLIPERFEAIWFNRTVKLTHLEFELLHCLLQRHGQTVAPSEILKEVWGYDPDDDIETIRVHIRHLRTKLEPDPRHPRYIKTVYGAGYCLELPAETELHQHADQFPSAS
– | binds | KaiA, fluorescently labeled probe (natural protein, fluorescently labeled using sortase-mediated ligation) MLSQIAICIWVESTAILQDCQRALSADRYQLQVCESGEMLLEYAQTHRDQIDCLILVAANPSFRAVVQQLCFEGVVVPAIVVGDRDSEDPDEPAKEQLYHSAELHLGIHQLEQLPYQVDAALAEFLRLAPVETMADHIMLMGANHDPELSSQQRDLAQRLQERLGYLGVYYKRDPDRFLRNLPAYESQKLHQAMQTSYREIVLSYFSPNSNLNQSIDNFVNMAFFADVPVTKVVEIHMELMDEFAKKLRVEGRSEDILLDYRLTLIDVIAHLCEMYRRSIPRET

From article doi:10.1101/2020.06.18.158576 (bioRxiv, 2020)
